In patent CN101045751A (INST OF MICROBIAL EPIDEMIC ACA, dated 2007):

Target: T1, B型肉毒毒素抗原 (Clostridium Botulinum, UniProt P10844 2-1291)
T1 sequence: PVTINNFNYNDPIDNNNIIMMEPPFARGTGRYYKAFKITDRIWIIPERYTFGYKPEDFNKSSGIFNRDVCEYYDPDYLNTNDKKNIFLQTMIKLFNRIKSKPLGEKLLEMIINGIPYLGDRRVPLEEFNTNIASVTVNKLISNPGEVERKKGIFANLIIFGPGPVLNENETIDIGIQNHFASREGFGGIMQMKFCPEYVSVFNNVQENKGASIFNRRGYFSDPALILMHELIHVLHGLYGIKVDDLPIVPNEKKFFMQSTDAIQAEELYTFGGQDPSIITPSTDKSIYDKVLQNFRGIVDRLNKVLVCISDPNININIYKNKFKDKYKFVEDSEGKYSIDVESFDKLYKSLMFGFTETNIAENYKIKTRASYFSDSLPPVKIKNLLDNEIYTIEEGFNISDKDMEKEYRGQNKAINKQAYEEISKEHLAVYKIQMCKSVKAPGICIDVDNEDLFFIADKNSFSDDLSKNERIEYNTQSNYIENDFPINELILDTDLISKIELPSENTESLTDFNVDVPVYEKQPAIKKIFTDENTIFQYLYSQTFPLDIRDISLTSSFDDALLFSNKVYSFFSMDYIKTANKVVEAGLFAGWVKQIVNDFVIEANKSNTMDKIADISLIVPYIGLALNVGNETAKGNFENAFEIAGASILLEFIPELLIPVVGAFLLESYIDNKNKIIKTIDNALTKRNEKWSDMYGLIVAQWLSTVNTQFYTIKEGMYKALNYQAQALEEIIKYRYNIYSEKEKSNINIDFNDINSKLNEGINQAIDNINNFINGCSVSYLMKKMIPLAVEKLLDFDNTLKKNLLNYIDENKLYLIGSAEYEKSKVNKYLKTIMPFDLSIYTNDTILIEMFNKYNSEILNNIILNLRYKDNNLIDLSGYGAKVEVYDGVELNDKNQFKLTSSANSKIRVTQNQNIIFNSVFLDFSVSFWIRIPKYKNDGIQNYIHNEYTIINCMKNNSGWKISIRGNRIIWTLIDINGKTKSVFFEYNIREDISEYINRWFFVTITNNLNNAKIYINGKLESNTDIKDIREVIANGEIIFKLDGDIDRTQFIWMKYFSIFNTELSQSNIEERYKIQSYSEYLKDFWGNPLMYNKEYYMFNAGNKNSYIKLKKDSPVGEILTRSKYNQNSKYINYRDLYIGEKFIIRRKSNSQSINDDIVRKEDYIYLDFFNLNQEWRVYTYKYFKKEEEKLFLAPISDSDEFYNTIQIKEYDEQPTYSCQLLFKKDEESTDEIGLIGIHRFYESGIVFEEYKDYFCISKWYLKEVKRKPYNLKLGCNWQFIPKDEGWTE
Assay: ELISA

B1: 人源抗A型肉毒神经毒素基因工程抗体 HuAb-BNa 单链抗体 (ScFv) (scFv)
scFv: QVQLQESGPGLVKPSETLSLTCTVSGGSISSGSYYWGWIRQPPGKGLEWIGSIYYSGSTYYNPSLKSRVTISVDTSKNQFSLMLSSVTAADTAVYYCARQGSSGYYQNWFDPWGQGTLVTVSSSGGGGSGGGGSGGGGDVVMTQSPGTLSLSPGERATLSCRASQSVSSSYLAWYQQKPGQAPRLLIYGASSRATGIPDRFSGSGSGTDFTLTISRPEPEDFAVYYCQQPGFTFGPGTKVEIKRTVAA
Does B1 bind?
Result: no binding
